Reference: patent publication US20090149389A1
Each block holds one binder with its values, some of them ahead of it. Where no end group is shown, it is not given here. [ ]: non-standard residue; d: D form.

Key:
Assay in all cases: cell-based or functional assay
[1] = target: PKC β 1 (h) (human (h)), P05771
[2] = target: PKG1α (h) (human (h)), Q13976
[3] = target: MAPKAP kinase II (MK2) (UniProt P49137)
MAPKAP kinase II (MK2), sequence (P49137 whole entry): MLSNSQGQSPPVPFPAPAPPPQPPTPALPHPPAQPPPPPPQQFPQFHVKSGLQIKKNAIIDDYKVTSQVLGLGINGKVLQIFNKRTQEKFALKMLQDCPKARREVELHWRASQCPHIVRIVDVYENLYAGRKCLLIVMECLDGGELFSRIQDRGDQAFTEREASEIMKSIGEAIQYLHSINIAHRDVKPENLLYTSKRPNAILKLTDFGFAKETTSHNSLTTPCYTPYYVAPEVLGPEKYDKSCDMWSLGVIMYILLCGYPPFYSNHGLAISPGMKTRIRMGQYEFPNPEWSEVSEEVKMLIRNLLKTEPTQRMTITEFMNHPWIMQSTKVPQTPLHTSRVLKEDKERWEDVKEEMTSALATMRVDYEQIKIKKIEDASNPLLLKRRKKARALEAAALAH

PKC β 1 (h) (human (h)), P05771, sequence (P05771 whole entry): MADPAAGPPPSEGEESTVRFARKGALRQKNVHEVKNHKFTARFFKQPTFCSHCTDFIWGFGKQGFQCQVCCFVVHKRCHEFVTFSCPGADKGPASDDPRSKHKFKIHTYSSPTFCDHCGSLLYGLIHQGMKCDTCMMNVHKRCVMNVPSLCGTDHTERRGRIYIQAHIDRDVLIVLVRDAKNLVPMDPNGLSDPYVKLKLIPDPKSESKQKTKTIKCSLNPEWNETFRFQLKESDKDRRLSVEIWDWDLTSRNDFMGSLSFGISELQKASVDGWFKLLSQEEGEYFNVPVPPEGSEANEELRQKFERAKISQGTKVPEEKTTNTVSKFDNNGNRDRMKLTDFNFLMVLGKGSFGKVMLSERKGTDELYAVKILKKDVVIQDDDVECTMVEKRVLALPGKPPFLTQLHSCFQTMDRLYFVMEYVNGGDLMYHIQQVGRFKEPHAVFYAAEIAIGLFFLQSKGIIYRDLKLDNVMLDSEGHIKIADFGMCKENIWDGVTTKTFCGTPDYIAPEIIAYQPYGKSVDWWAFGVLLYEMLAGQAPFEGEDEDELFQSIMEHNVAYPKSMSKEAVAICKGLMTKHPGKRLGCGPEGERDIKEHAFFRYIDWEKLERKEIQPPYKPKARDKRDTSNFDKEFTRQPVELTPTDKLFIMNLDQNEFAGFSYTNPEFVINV
PKG1α (h) (human (h)), Q13976, sequence (Q13976 whole entry): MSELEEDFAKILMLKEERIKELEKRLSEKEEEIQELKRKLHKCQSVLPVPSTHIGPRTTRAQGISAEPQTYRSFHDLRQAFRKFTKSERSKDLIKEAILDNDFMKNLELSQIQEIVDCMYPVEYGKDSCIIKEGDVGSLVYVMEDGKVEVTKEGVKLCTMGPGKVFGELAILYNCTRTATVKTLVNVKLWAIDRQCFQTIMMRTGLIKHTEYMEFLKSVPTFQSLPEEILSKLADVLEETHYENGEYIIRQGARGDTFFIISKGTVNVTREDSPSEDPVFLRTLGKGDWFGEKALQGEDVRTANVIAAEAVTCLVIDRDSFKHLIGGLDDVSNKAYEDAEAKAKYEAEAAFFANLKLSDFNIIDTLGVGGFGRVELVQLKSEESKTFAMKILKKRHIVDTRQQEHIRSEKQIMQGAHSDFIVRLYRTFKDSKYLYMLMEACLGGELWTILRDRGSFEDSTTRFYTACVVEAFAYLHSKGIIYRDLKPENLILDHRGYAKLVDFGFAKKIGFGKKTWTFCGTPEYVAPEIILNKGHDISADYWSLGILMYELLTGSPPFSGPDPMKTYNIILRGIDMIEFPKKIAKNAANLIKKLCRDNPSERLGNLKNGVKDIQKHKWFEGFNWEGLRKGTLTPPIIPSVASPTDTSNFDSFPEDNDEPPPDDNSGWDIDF

Profile-1 @ = 100 µm (kinase profiler assay) [1]: 23
Profile-1 @ = 100 µm (kinase profiler assay) [2]: 25
Binder: KAFAKLAARLYRKALARQLGVAA

Profile-1 @ = 100 µm (kinase profiler assay) [1]: 73
Profile-1 @ = 100 µm (kinase profiler assay) [2]: 12
Binder: FAKLAARLYRKALARQLGVAA

Second part, the binder before the results:

Binder: WLRRIKAWLRRIKALNRQLGVAA
Profile-1 @ = 30 µm (kinase profiler assay) [1]: 8
Profile-1 @ = 30 µm (kinase profiler assay) [2]: 16

Binder: KA[dL]NRQLGVAA (peptide, from a related filing) [KAd…]
% of … [SEQ ID NO: 124] Reaction Velocity at an Inhibitor Concentration of 100 µM [3]: 146%

Binder: KALNRQLG[dV]AA (peptide, from a related filing) [KALNRQLGdVAA]
% of … [SEQ ID NO: 124] Reaction Velocity at an Inhibitor Concentration of 100 µM [3]: 260%

Binder: KAL[dN]RQLGVAA (peptide, from a related filing) [KALdNRQLGVAA]
% of … [SEQ ID NO: 124] Reaction Velocity at an Inhibitor Concentration of 100 µM [3]: 95%

Binder: KALN[dR]QLGVAA (peptide, from a related filing) [KALNdRQLGVAA]
% of … [SEQ ID NO: 124] Reaction Velocity at an Inhibitor Concentration of 100 µM [3]: 306%
